From patent US20160368988A1 (MERUS N V, published 2016)

Legend:
[1] = target: T1, human CD3, membrane-expressed (CD3/TCR complex on HPB-ALL cells or purified human T cells) (human, UniProt P07766 23-207; P04234 22-171; P09693 23-182); assay: flow cytometry on HPB-ALL cells
T1 construct: whole, on cells; On cells CD3 stands in the complex with the TCR and the zeta chain; also called cell surface expressed CD3/TCR complexes

[2] = target: T1, human CD3, membrane-expressed (CD3/TCR …); assay: flow cytometry on HPB-ALL cells; remark: listed apart in the source
[3] = target: T1, human CD3, membrane-expressed (CD3/TCR …); assay: flow cytometry on HPB-ALL cells [lower panel]
[4] = target: T1, human CD3, membrane-expressed (CD3/TCR …); assay: flow cytometry on HPB-ALL cells [upper panel]
[5] = target: T1, human CD3, membrane-expressed (CD3/TCR …); assay: flow cytometry on HPB-ALL cells [upper panel]; remark: listed apart in the source
[6] = target: T1, human CD3, membrane-expressed (CD3/TCR …); assay: flow cytometry on HPB-ALL cells [lower panel]; remark: listed apart in the source
[7] = target: T2, recombinant purified human CLEC12A (Sino Biological Inc, cat. Nr. 11896-H07H) (human, UniProt Q5QGZ9 65-265); assay: SPR (BIAcore T100), ratio of the two KD values
T2 construct: Bought protein; also called CLEC12A protein
T2 sequence (looked up): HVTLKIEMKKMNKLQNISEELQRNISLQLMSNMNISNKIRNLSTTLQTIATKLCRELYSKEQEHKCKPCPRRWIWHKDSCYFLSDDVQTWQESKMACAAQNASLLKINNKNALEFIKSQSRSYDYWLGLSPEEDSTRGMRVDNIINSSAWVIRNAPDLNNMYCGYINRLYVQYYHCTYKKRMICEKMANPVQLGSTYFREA

[8] = target: T1, human CD3, membrane-expressed (CD3/TCR …); assay: flow cytometry on CD3+ HPB-ALL cells [panel HPB-ALL]
[9] = target: T2, recombinant purified human CLEC12A …; assay: SPR (BIAcore T100), bsAb captured by anti-human IgG on a CM5 chip, antigen in solution; average of three measurements

T1 sequence (P07766 23-207, chain 1 of 3): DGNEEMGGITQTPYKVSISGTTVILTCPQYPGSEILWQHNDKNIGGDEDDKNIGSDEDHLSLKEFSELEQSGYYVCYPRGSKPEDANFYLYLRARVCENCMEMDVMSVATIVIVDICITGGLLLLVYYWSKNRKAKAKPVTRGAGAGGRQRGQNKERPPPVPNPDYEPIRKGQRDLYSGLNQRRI
T1 sequence (P04234 22-171, chain 2 of 3): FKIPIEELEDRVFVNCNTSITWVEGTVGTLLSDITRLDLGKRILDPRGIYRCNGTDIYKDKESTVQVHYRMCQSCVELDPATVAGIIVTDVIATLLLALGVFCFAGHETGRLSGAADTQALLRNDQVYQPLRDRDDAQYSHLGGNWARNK
T1 sequence (P09693 23-182, chain 3 of 3): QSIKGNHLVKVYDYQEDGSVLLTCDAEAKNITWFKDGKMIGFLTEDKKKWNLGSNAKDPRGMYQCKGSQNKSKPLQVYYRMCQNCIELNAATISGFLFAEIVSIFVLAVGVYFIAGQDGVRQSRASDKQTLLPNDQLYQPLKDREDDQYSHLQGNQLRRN

B1: PG3873 (antibody, V domains shown)
VH: QVQLVQSGGGVVQPGRSLRLSCVASGFTFSSYGMHWVRQAPGKGLEWVAAIWYQGRKQDYADSVKGRFTISRDNSKNTLYLQMNSLRAEDTAVYYCTRGTGYNWFDPWGQGTLVTVSS
VL: not shown
notes: Full length monoclonal IgG; also called MF3873 as IgG
B1: no binding (tested: 10 µg/ml) [1].

B2: PG3905 (antibody, V domains shown)
VH: QVQLVQSGGGVVQPGRSLRLSCVASGFTFSSYGMHWVRQAPGKGLEWVAAIWYGGRKQDYADSVKGRFTISRDNSKNTLYLQMNSLRAEDTAVYYCTRGTGYNWFDPWGQGTLVTVSS
VL: not shown
notes: Full length monoclonal IgG; also called MF3905 as IgG
B2: no binding (tested: 10 µg/ml) [1].

B3: PG5196 (antibody, V domains shown)
VH: QVQLVQSGGGVVQPGRSLRLSCVASGFTFSSYGMHWVRQAPGKGLEWVAAIWYNARKQDYADSVKGRFTISRDNSKNTLYLQMNSLRAEDTAVYYCTRGTGYNWFDPWGQGTLVTVSS
VL: not shown
notes: Full length monoclonal IgG; also called PG5196 mAb; MF5196 as IgG
B3: binds [2].

B4: PG5351 (antibody, V domains shown)
VH: QVQLVQSGGGVVQPGRSLRLSCAASGFTFSSYGMHWVRQAPGKGLEWVAMIWYDGKNTYYADSVKGRFTISRDNSKNTLYLQMNSLRAEDTAVYYCTRGTGYNWFDPWGQGTLVTVSS
VL: not shown
notes: Monospecific IgG format; also called MF5351 in monospecific IgG format
B4: binds [3].

B5: PG5354 (antibody, V domains shown)
VH: QVQLVQSGGGVVQPGRSLRLSCAASGFTFSGYGMHWVRQAPGKGLEWVAQIYYDGSRTYYADSVKGRFTISRDNSKNTLYLQMNSLRAEDTAVYYCTRGTGYNWFDPWGQGTLVTVSS
VL: not shown
notes: Monospecific IgG format; also called MF5354 in monospecific IgG format
B5: binds [4].

B6: PG5356 (antibody, V domains shown)
VH: QVQLVESGGGVVQPGRSLRLSCAASGFTFSKYGMHWVRQAPGKGLEWVAQIWHDGRKTYYADSVKGRFTISRDNSKNTLYLQMNSLRAEDTAVYYCTRGTGYNWFDPWGQGTLVTVSS
VL: not shown
notes: Monospecific IgG format; also called MF5356 in monospecific IgG format
B6: binds [3].

B7: PG5603 (antibody, V domains shown)
VH: QVQLVQSGGGVVQPGRSLRLSCVASGFTFSSYGMHWVRQAPGKGLEWVAAIWYNARKQEYIDSVKGRFTISRDNSKNTLYLQMNSLRAEDTAVYYCTRGTGYNWFDPWGQGTLVTVSS
VL: not shown
notes: Monospecific IgG format; also called MF5603 in monospecific IgG format
B7: binds [5].

B8: PG5616 (antibody, V domains shown)
VH: QVQLVQSGGGVVQPGRSLRLSCVASGFTFSSYGMHWVRQAPGKGLEWVAAIWYNARKQEYNDSVKGRFTISRDNSKNTLYLQMNSLRAEDTAVYYCTRGTGYNWFDPWGQGTLVTVSS
VL: not shown
notes: Monospecific IgG format; also called MF5616 in monospecific IgG format
B8: binds [6].

B9: PG5626 (antibody, V domains shown)
VH: QVQLVQSGGGVVQPGRSLRLSCVASGFTFSSYGMHWVRQAPGKGLEWVAAIWYNARKQEYRDSVKGRFTISRDNSKNTLYLQMNSLRAEDTAVYYCTRGTGYNWFDPWGQGTLVTVSS
VL: not shown
notes: Monospecific IgG format; also called MF5626 in monospecific IgG format
B9: binds [6].

B10: PG5630 (antibody, V domains shown)
VH: QVQLVQSGGGVVQPGRSLRLSCVASGFTFSSYGMHWVRQAPGKGLEWVAAIWYNARKQDYADSVKGRFTISRDNSKNTLYLQMNSLRAEDTAVYYCTRGTGYNWYDPWGQGTLVTVSS
VL: not shown
notes: Monospecific IgG format; also called MF5630 in monospecific IgG format
B10: binds [5].

B11: PG5648 (antibody, V domains shown)
VH: QVQLVQSGGGVVQPGRSLRLSCVASGFTFSSYGMHWVRQAPGKGLEWVAAIWYNARKQEYLDSVKGRFTISRDNSKNTLYLQMNSLRAEDTAVYYCTRGTGYNWFDPWGQGTLVTVSS
VL: not shown
notes: Monospecific IgG format; also called MF5648 in monospecific IgG format
B11: binds [5].

B12: PG5694 (antibody, V domains shown)
VH: QVQLVQSGGGVVQPGRSLRLSCVASGFTFSSYGMHWVRQAPGKGLEWVAAIWYNARKQEYSDSVKGRFTISRDNSKNTLYLQMNSLRAEDTAVYYCTRGTGYNWFDPWGQGTLVTVSS
VL: not shown
notes: Monospecific IgG format; also called MF5694 in monospecific IgG format
B12: binds [5].

B13: 5196×4327 DM-Fc bsAb (bispecific antibody, V domains shown)
VH 1: QVQLVQSGGGVVQPGRSLRLSCVASGFTFSSYGMHWVRQAPGKGLEWVAAIWYNARKQDYADSVKGRFTISRDNSKNTLYLQMNSLRAEDTAVYYCTRGTGYNWFDPWGQGTLVTVSS
VH 2: QVQLVQSGAEVKKPGASVKVSCKASGYTFTSYYMHWVRQAPGQGLEWMGIINPSGGSTSYAQKFQGRVTMTRDTSTSTVYMELSSLRSEDTAVYYCAKGTTGDWFDYWGQGTLVTVSS
VL: not shown
notes: Full length bispecific IgG with the lower hinge/CH2 changes at positions 235-236 (DM-Fc; L235G, G236R) and CH3 heterodimerisation (KK/DE variants) as in WO2014/051433
In the case of B13, the “fold higher affinity of the CLEC12A arm than of the human CD3 binding arm” value [7] is reported as about 60 fold, the binding result [8] is reported as “binds” and the Kd [9] is reported as 3 nM.
